Results as given in the supplement of paper PMC10065799, “High-throughput profiling of sequence recognition by tyrosine kinases and SH2 domains using bacterial peptide display” (eLife, 2023).

How the values were obtained:
c-Abl (mouse) = assay: phosphorylation enrichment, bacterial display (enrichment ratio); higher = better substrate or ligand; peptides without Tyr show the background
Fyn = Fyn (UniProt P06241); assay: as above
EPHB2 = EPHB2 (UniProt P29323); assay: as above
Hck = Hck (UniProt P08631); assay: as above
Hck, sequence (P08631 whole entry, looked up): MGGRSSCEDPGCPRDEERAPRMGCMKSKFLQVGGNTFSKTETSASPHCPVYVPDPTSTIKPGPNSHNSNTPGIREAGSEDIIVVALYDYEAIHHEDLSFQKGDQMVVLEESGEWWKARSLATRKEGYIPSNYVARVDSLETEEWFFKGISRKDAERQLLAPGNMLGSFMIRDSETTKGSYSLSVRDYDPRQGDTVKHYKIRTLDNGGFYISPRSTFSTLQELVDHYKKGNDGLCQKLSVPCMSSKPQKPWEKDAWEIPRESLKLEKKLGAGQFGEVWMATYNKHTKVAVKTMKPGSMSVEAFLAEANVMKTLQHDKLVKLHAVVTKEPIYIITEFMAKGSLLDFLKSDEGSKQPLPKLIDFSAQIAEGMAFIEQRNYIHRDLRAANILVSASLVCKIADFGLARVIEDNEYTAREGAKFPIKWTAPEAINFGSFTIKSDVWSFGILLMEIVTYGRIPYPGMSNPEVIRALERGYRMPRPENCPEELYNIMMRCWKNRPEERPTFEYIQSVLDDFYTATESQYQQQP

Fes = Fes (UniProt P07332); assay: as above
Fes, sequence (P07332 whole entry, looked up): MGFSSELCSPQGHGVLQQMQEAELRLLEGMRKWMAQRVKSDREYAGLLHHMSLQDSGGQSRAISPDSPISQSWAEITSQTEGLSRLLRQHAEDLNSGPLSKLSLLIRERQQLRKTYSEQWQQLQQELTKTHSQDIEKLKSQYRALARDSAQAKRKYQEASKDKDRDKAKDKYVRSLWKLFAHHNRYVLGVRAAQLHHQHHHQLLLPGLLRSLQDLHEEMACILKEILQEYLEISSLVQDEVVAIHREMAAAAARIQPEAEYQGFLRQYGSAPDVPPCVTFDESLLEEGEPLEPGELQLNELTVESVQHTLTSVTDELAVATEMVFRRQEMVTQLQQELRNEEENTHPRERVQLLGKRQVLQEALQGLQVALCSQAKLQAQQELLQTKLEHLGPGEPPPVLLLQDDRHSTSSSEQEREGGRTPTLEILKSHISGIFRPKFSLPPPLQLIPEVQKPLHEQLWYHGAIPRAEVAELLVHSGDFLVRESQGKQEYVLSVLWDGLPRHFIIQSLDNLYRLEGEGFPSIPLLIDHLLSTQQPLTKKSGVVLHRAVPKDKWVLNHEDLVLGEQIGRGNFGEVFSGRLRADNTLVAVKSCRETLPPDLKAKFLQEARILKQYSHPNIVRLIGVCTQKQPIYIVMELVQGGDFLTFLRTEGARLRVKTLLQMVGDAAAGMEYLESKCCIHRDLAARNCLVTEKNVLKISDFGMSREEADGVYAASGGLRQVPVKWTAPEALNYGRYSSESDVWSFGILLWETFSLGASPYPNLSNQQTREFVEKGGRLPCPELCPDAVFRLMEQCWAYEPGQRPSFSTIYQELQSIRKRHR

Jak2 = Jak2 (UniProt O60674); assay: as above
Jak2, sequence (O60674 whole entry, looked up): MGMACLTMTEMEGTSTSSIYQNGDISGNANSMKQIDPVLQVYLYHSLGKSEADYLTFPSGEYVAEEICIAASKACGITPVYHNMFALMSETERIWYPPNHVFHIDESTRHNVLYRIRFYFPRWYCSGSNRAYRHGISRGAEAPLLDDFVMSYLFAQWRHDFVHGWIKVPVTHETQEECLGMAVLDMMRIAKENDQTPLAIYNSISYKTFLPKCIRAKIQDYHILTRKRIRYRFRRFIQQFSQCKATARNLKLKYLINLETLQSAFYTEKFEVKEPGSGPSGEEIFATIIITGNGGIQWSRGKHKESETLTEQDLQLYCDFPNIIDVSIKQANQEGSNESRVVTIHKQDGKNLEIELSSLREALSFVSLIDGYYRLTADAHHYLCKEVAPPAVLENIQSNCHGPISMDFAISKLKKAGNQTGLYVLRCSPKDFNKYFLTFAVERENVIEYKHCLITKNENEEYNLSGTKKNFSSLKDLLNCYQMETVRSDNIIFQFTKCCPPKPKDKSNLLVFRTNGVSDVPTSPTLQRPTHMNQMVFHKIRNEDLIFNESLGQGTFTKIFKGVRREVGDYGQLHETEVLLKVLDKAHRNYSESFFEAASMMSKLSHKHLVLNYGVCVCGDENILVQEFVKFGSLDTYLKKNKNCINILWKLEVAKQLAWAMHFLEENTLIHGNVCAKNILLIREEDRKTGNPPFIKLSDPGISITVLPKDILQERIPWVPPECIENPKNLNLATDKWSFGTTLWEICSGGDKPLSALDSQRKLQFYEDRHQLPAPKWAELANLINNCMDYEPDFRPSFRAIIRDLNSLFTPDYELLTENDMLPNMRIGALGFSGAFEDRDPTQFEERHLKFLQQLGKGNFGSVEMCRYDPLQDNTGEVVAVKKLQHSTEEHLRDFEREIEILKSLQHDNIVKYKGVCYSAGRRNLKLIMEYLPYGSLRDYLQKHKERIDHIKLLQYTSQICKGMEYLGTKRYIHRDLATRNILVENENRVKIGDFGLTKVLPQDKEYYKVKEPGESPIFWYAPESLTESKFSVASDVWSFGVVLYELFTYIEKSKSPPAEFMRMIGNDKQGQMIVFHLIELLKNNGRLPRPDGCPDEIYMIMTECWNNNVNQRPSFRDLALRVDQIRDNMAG

FGFR1 = FGFR1 (UniProt P11362); assay: as above
FGFR1, sequence (P11362 whole entry, looked up): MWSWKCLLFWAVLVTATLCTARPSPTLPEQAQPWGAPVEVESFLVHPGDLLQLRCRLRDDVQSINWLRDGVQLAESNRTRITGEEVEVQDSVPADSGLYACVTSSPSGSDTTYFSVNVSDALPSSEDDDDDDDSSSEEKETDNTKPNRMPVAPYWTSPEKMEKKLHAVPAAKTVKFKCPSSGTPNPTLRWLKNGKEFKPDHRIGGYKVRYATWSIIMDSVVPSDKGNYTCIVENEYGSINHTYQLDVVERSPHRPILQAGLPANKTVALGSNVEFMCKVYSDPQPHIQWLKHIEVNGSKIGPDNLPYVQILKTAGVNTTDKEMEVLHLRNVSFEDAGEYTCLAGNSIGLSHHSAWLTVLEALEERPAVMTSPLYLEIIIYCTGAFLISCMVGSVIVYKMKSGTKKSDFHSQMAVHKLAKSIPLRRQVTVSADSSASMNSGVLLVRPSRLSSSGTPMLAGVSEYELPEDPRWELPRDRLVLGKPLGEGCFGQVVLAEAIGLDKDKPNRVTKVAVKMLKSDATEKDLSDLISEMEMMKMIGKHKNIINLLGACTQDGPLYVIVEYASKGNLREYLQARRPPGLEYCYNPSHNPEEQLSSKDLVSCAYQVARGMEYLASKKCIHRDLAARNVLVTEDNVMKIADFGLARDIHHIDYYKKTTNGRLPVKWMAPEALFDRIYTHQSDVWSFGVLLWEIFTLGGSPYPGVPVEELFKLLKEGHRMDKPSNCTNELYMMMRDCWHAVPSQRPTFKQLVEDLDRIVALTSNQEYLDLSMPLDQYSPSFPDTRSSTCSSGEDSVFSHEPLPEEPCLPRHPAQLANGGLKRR

c-Src = assay: as above
MERTK = MERTK (UniProt Q12866); assay: as above
EPHB1 = EPHB1 (UniProt P54762); assay: as above
EPHB1, sequence (P54762 whole entry, looked up): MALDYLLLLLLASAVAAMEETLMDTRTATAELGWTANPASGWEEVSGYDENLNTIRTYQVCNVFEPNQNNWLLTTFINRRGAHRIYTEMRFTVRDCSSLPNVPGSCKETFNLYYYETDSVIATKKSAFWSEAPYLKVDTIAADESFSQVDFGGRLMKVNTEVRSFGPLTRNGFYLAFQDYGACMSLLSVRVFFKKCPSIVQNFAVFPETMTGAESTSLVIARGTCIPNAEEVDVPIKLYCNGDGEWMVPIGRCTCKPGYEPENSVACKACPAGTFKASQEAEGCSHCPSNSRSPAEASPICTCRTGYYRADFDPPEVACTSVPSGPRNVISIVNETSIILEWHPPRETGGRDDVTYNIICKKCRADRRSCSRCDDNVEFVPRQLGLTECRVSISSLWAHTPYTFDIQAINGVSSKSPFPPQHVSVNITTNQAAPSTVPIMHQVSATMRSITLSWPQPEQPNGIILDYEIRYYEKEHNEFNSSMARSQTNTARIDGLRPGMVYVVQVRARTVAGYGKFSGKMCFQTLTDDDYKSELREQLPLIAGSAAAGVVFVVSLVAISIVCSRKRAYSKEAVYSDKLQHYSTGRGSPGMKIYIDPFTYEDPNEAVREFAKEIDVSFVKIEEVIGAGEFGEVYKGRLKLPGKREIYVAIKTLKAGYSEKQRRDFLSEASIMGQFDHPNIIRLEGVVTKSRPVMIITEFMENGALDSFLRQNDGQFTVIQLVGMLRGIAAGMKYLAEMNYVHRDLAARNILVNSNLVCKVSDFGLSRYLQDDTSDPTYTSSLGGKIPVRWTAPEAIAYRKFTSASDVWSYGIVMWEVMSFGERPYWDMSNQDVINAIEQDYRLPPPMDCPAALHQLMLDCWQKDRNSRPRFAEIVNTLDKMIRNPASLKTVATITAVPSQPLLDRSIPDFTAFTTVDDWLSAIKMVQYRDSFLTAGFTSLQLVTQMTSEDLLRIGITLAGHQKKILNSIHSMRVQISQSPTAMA

Fer (mouse) = assay: as above
AncSZ = assay: as above
FGFR3 = FGFR3 (UniProt P22607); assay: as above
Grb2 SH2 = Grb2 SH2 (UniProt P62993); assay: SH2 binding enrichment of the phosphorylated peptide, bacterial display (enrichment ratio); higher = better substrate or ligand; peptides without Tyr show the background
c-Src SH2 = assay: as above
SHP2-C SH2 = assay: as above
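For SH2 binding enrichment of the phosphorylated peptide, bacterial display in this document: peptide library displayed on the E. coli surface as eCPX fusions, selected cells deep-sequenced, score is each peptide's frequency after selection divided by its frequency in the input.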
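For phosphorylation enrichment, bacterial display in this document: 11-residue human phosphosite peptides and single-mutation variants displayed on the E. coli surface, counted by deep sequencing, each peptide's frequency after selection divided by its frequency in the unselected input library; frequency after pTyr selection over input frequency; kinase dosed for 20-30% of maximal phosphorylation in three min.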

Fyn, sequence (P06241 whole entry, looked up): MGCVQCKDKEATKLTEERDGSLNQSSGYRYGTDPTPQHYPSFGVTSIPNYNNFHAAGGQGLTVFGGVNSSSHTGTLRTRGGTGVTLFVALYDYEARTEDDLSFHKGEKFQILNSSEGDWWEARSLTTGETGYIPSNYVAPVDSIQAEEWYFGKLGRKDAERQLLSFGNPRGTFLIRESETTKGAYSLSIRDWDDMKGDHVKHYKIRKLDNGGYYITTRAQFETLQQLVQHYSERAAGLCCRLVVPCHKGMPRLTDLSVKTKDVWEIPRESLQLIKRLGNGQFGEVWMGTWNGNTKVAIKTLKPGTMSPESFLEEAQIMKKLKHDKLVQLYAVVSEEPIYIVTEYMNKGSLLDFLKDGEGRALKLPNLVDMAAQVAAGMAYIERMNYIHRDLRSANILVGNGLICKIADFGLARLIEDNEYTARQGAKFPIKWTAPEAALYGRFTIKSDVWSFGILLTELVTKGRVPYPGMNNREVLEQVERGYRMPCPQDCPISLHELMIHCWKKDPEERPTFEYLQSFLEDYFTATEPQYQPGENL

SH2 binding enrichment (Grb2 SH2)	SH2 binding enrichment (c-Src SH2)	SH2 binding enrichment (SHP2-C SH2)	Sequence	phosphorylation enrichment (c-Abl (mouse))	phosphorylation enrichment (Fyn)	phosphorylation enrichment (EPHB2)	phosphorylation enrichment (Hck)	phosphorylation enrichment (Fes)	phosphorylation enrichment (Jak2)	phosphorylation enrichment (FGFR1)	phosphorylation enrichment (c-Src)	phosphorylation enrichment (MERTK)	phosphorylation enrichment (EPHB1)	phosphorylation enrichment (Fer (mouse))	phosphorylation enrichment (AncSZ)	phosphorylation enrichment (FGFR3)
0.964	0.864	0.843	FSQNIYIQNRN [PKP2_Y631_YF]	0.459	0.447	0.425	0.589	0.62	0.517	0.54	0.45	0.383	0.396	0.418	0.619	0.473
0.654	0.418	0.618	TTGGFYSFGGG [KRT24_Y120_A115T_YF]	0.585	4.22	0.442	1.57	0.847	0.604	0.46	1.67	8.96	0.766	1.55	0.623	0.446

More lines, now with the values behind:

Sequence	SH2 binding enrichment (Grb2 SH2)	SH2 binding enrichment (c-Src SH2)	SH2 binding enrichment (SHP2-C SH2)	phosphorylation enrichment (c-Abl (mouse))	phosphorylation enrichment (Fyn)	phosphorylation enrichment (EPHB2)	phosphorylation enrichment (Hck)	phosphorylation enrichment (Fes)	phosphorylation enrichment (Jak2)	phosphorylation enrichment (FGFR1)	phosphorylation enrichment (c-Src)	phosphorylation enrichment (MERTK)	phosphorylation enrichment (EPHB1)	phosphorylation enrichment (Fer (mouse))	phosphorylation enrichment (AncSZ)	phosphorylation enrichment (FGFR3)
RTVPLYESPRK [DDB1_Y718]	0.898	0.57	1.01	26	3.13	26.6	10.5	1.77	0.833	0.374	3.79	7.82	20.7	16	1.31	0.577
PRLMLYNPTTF [EGFR_Y270_P266R_YF]	0.968	0.505	0.631	1.12	0.748	0.811	0.618	1.18	1.38	0.772	0.729	0.703	0.763	0.848	1.16	1.04
ENFSEYQEISV [HEMGN_Y150_A154S]	0.827	0.617	0.749	0.965	0.594	1.46	0.987	1.39	1.14	1.89	0.873	0.659	2.45	1.42	1.59	1.53
GFEVVYMTEPI [HSP90AB1_Y512]	0.85	0.605	0.694	0.693	0.557	0.537	0.668	1.34	1.4	0.625	0.8	0.405	0.527	0.403	1.37	0.879
NTEGGYRCICA [CRELD1_Y328]	0.97	0.465	0.489	0.947	0.511	0.644	0.538	1.02	0.869	0.668	0.465	0.484	0.496	0.498	0.976	0.636
QNTGGYFDLFG [PTPN11_Y62_D61G_YF]	–	–	–	0.27	–	–	–	–	1.26	–	–	–	–	–	–	–
